Results as given in publication PMC9637641.

Experiments:
[1] = target: OG488-TFPIα-BR; test: fluorescence polarisation; steady-state fluorescence anisotropy; FV species or APCi titrated (0–100 nM) into 25 nM OG488-TFPIα-BR and 50 μM PCPS vesicles in HBS/Ca2+/PEG, pH 7.4 (20 mM Hepes, 150 mM NaCl, 5 mM CaCl2, 0.1% PEG-8000), 25 °C; fit to a model for tight binding
[2] = target: FV-BR fragment (human) (UniProt P12259)
[3] = target: OG488-TFPIα-BR

FV-BR fragment (human), sequence (P12259 979-1036): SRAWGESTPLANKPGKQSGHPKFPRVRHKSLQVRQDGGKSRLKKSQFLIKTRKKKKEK
Human FVa, sequence (P12259 29-737): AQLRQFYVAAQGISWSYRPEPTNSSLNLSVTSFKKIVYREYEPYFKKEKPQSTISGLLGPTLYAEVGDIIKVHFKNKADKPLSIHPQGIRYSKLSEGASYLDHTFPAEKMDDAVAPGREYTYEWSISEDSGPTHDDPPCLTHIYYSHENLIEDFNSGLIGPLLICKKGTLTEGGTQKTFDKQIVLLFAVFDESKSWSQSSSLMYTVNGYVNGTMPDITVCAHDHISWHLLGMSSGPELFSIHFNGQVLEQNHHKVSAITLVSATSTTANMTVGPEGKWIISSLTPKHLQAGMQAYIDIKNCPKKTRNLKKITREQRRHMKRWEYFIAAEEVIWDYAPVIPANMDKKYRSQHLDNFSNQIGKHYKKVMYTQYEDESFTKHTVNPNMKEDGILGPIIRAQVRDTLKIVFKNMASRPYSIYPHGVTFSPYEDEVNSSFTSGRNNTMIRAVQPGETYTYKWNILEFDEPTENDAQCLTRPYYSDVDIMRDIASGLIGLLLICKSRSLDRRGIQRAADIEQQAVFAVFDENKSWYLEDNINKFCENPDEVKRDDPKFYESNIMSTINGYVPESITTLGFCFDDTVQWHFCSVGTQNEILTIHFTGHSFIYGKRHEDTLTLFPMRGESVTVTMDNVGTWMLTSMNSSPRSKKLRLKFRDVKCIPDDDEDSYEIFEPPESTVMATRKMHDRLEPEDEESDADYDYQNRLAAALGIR
Human FVa, sequence (P12259 1574-2224): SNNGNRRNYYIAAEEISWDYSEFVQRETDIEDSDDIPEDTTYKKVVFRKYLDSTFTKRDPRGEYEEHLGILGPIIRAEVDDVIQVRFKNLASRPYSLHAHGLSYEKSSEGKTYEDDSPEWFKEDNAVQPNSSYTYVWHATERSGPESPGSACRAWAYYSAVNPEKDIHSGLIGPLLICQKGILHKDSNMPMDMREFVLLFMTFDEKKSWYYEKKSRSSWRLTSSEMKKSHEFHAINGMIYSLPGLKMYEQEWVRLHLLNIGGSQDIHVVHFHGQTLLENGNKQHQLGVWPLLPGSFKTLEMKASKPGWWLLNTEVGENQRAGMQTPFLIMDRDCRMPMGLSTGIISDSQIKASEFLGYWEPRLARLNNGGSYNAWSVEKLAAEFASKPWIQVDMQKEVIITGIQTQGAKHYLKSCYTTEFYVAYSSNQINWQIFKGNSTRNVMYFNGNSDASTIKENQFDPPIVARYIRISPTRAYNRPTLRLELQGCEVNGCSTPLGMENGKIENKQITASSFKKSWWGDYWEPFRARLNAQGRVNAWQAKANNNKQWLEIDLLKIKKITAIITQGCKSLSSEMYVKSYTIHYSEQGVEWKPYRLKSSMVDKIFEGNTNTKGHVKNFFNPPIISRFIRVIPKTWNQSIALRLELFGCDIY

| Substance | Kd [1] | stoichiometry N [1] | Reduced fold change of inactivation by APC, +FV-BR (kobs no BR divided by kobs +BR; % peak thrombin in TGA; 20 nM FV species, 250 nM BR fragment, 1 nM APC) [2] | Reduced fold change of inactivation by APC, +TFPIα-BR (kobs no BR divided by kobs +BR; % peak thrombin in TGA; 20 nM FV species, 250 nM BR fragment, 1 nM APC) [3] |
| --- | --- | --- | --- | --- |
| FV-s46 (from UniProt P12259 29-990; P12259 1037-2224) | 2.17 nM | 1.78 mol/mol | – | – |
| FV-810-R306Q/R506Q | 2.46 nM | 1.18 mol/mol | – | – |
| Human FVa (from UniProt P12259 29-737; P12259 1574-2224) (complex) | – | – | 0.9 fold | – |
| FV-short (natural protein) | – | – | 15.7 fold | – |

Now from value to substance:

| Kd [1] | stoichiometry N [1] | Reduced fold change of inactivation by APC, +FV-BR (kobs no BR divided by kobs +BR; % peak thrombin in TGA; 20 nM FV species, 250 nM BR fragment, 1 nM APC) [2] | Reduced fold change of inactivation by APC, +TFPIα-BR (kobs no BR divided by kobs +BR; % peak thrombin in TGA; 20 nM FV species, 250 nM BR fragment, 1 nM APC) [3] | Substance |
| --- | --- | --- | --- | --- |
| 1.78 nM | 1.29 mol/mol | 17 fold | 17 fold | FV-810 |
| 2.15 nM | 1.44 mol/mol | – | – | FV-810-R306Q |
| 1.72 nM | 1.43 mol/mol | – | – | FV-810-R506Q |
